Laboratory results taken from the supplement of paper PMC6757056.
± gives the standard deviation of the averaged measurements.

B1: library; a variant is named by its letters at N, in order (parent)
chain: GCUGUCACCGGUGCUUGGUACGUUAUAUUCAGCCGGUCUGAUGAGUCUNNNNNNAGACGAAACAGC

Legend:
[1] = variants of: B1; experiment: FACS-Seq fitted mean relative fluorescence mCherry/BFP without ligand (log10 relative fluorescence); HEK293T overexpressing SLC46A1; higher = higher reporter protein expression; settings: without (6R,S)-folinic acid; ligand present: no
In short: (§1)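 HEK293T libraries were lentivirally transduced with an mCherry reporter carrying the ribozyme switch and an EF1α-BFP marker, enriched, and incubated for 48 h with or without ligand before sorting into 6 bins by mCherry/BFP. Genomic DNA from each bin was PCR-amplified, barcoded and sequenced on MiSeq. Fluorescence is the fitted normal mean of the bin counts. The fit used log10(mCherry/BFP), and means were scaled to five spiked-in control ribozymes.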

[2] = variants of: B1; experiment: normalized RNA/DNA level without ligand (relative to sTRSVctl = 100) (log10 (% of sTRSVctl)); HEK293T overexpressing SLC46A1; higher = less ribozyme self-cleavage, higher mRNA level; settings: without (6R,S)-folinic acid; ligand present: no
In short: (§2)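 Total RNA, extracted with EDTA 72 h after HEK293T cells were transfected with 4 µg per 6-well well of reporter-linked ribozyme switch library plasmids, was reverse-transcribed, amplified, barcoded and sequenced. Ligand, if used, was added 1 h before transfection. RNA level was derived from RNA reads divided by DNA reads and normalized to a spiked-in non-cleaving sequence or to the top sequences. This was multiplied by 100 and log10-transformed, with the top set of 25 sequences and a ≥100 DNA read minimum.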

[3] = variants of: B1; experiment: FACS-Seq fitted mean relative fluorescence mCherry/BFP with ligand (log10 relative fluorescence); HEK293T overexpressing SLC46A1; ligand concentration (+) FACS-Seq: 6 mM; higher = higher reporter protein expression; settings: with (6R,S)-folinic acid; ligand present: yes
In short: as §1

[4] = variants of: B1; experiment: normalized RNA/DNA level with ligand (relative to sTRSVctl = 100) (log10 (% of sTRSVctl)); HEK293T overexpressing SLC46A1; ligand concentration (+) RNA-Seq: 6 mM; higher = less ribozyme self-cleavage, higher mRNA level; settings: with (6R,S)-folinic acid; ligand present: yes
In short: as §2

Variant	FACS-Seq fitted mean (log10) [1]	normalized RNA/DNA level without ligand (log10) [2]	FACS-Seq fitted mean (log10) [3]	normalized RNA/DNA level with ligand (log10) [4]
GUCUGG	0.433 ± 0.03	2.027 ± 0.0089	0.385 ± 0.25	2.07 ± 0.063
UUAUGU	0.389 ± 0.12	1.919 ± 0.0091	0.413 ± 0.13	1.987 ± 0.019
UUAUGA	0.0124 ± 0.043	1.9284 ± 0.0007	-0.0229 ± 0.25	2.01 ± 0.027
GUAGGG	0.666 ± 0.045	1.881 ± 0.0094	0.643 ± 0.24	1.99 ± 0.024
GUCAAG	0.249 ± 0.027	1.974 ± 0.0083	0.168 ± 0.075	2.03 ± 0.045
UUGAGG	0.275 ± 0.1	1.86 ± 0.025	0.336 ± 0.18	2.006 ± 0.0026
UUGAGA	0.325 ± 0.084	1.841 ± 0.013	0.468 ± 0.01	1.993 ± 0.0082
GUCUUG	0.0388 ± 0.018	1.974 ± 0.0081	0.151 ± 0.32	2.05 ± 0.049
GUGGCA	0.0901 ± 0.037	2.011 ± 0.0084	0.458 ± 0.2	2.02 ± 0.042
AUGAGU	0.287 ± 0.0094	1.788 ± 0.017	0.639 ± 0.18	1.97 ± 0.04
AUGAGA	0.466 ± 0.025	1.944 ± 0.014	0.537 ± 0.077	2.014 ± 0.016
AUGAGC	-0.023 ± 0.066	1.998 ± 0.0094	0.192 ± 0.3	2.03 ± 0.028
GUCAUG	0.406 ± 0.047	2.004 ± 0.01	0.165 ± 0.087	2.03 ± 0.027
AUAGAU	0.365 ± 0.1	1.925 ± 0.011	0.406 ± 0.1	2 ± 0.054
AUCGGA	0.397 ± 0.17	1.99 ± 0.0013	0.345 ± 0.48	2 ± 0.039
AUCACA	0.256 ± 0.074	2.004 ± 0.0041	0.0653 ± 0.038	2.02 ± 0.032
CUAUAG	0.0808 ± 0.1	1.915 ± 0.017	0.35 ± 0.15	2 ± 0.029
GUCUCG	0.378 ± 0.032	1.997 ± 0.0037	0.197 ± 0.26	2.003 ± 0.013

Variant	FACS-Seq fitted mean (log10) [1]	normalized RNA/DNA level without ligand (log10) [2]	FACS-Seq fitted mean (log10) [3]	normalized RNA/DNA level with ligand (log10) [4]
GUGCGU	0.436 ± 0.15	1.9915 ± 0.0017	0.582 ± 0.16	2.008 ± 0.017
GUGCGA	0.238 ± 0.11	1.999 ± 0.014	0.278 ± 0.38	2.02 ± 0.044
CUCAAU	0.0874 ± 0.13	1.97 ± 0.036	0.0541 ± 0.42	1.971 ± 0.011
GUAGAU	0.516 ± 0.029	1.9541 ± 0.0012	0.494 ± 0.37	1.98 ± 0.047
UUCACU	-0.112 ± 0.034	2.059 ± 0.0067	-0.112 ± 0.28	2.041 ± 0.02
GUAUUU	0.142 ± 0.24	2 ± 0.022	0.173 ± 0.0069	2.01 ± 0.033
GUAGUG	0.359 ± 0.012	1.856 ± 0.0051	0.637 ± 0.19	1.99 ± 0.054
GUGCCG	0.617 ± 0.24	2.0438 ± 0.0018	0.702 ± 0.27	2.04 ± 0.052
UUCCGA	-0.0446 ± 0.086	1.997 ± 0.002	-0.101 ± 0.13	1.999 ± 0.018
UUGGAA	0.241 ± 0.03	1.9 ± 0.025	0.528 ± 0.17	1.99 ± 0.029
UUGGAG	-0.00192 ± 0.0051	1.71 ± 0.035	0.315 ± 0.1	1.99 ± 0.016
GUCGCA	0.512 ± 0.053	2.03 ± 0.021	0.745 ± 0.29	2.01 ± 0.041
GUCGCC	0.306 ± 0.12	2.015 ± 0.012	0.25 ± 0.17	2.02 ± 0.052
UUAGCA	-0.108 ± 0.12	1.9803 ± 0.0011	-0.232 ± 0.1	2.0126 ± 0.00039
GUGCUG	-0.457 ± 0.06	2.077 ± 0.012	-0.879 ± 0.14	2.05 ± 0.065
GUCCAG	0.335 ± 0.07	1.966 ± 0.011	0.103 ± 0.16	1.975 ± 0.018
CUGCCC	0.494 ± 0.029	2.07 ± 0.041	0.403 ± 0.0067	2.06 ± 0.021
CUGAAA	0.38 ± 0.12	1.986 ± 0.0076	0.578 ± 0.071	2 ± 0.014
